From US20140087995A1 (published 2014)
Numbered stars: 1 amine (or outer) side, 2 acyl side, 3 side chain; on linkers, the order of the positions; unused ones are H or OH. Bridge positions count the residues as written; N and C are the ends. Side chains are listed from the residue outwards. Ends that are not written are not given here. * marks the point of attachment. C20 diacid = O=C(O)CCCCCCCCCCCCCCCCCCC(=O)*; γGlu = O=C(O)[C@H](CCC(=O)[*:2])N[*:1]; AEEA = NCCOCCOCC(=O)O

T1: rat calcitonin receptor (rat, UniProt P32214 25-516)
T1 construct: whole, on cells; also called rCTR; rat calcitonin (a) receptor
T1 sequence (looked up): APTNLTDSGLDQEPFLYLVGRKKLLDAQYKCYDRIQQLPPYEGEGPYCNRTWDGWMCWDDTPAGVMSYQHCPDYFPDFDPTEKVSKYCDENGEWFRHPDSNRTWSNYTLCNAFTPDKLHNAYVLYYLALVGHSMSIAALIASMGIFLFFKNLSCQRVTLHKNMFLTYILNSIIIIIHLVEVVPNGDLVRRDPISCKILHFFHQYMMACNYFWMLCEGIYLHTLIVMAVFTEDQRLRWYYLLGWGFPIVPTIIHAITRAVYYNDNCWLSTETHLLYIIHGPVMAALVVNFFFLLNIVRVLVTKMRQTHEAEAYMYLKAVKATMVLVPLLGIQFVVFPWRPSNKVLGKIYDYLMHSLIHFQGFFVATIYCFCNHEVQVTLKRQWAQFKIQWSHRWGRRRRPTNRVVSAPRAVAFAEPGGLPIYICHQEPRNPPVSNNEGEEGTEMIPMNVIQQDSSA

T2: rat amylin receptor (rat calcitonin receptor + rat RAMP 3) (rat, UniProt P32214 25-516; Q9JJ73 23-147)
T2 construct: whole, on cells; also called rAmylin-R; rat amylin 3(a) receptor
T2 sequence (looked up) 1: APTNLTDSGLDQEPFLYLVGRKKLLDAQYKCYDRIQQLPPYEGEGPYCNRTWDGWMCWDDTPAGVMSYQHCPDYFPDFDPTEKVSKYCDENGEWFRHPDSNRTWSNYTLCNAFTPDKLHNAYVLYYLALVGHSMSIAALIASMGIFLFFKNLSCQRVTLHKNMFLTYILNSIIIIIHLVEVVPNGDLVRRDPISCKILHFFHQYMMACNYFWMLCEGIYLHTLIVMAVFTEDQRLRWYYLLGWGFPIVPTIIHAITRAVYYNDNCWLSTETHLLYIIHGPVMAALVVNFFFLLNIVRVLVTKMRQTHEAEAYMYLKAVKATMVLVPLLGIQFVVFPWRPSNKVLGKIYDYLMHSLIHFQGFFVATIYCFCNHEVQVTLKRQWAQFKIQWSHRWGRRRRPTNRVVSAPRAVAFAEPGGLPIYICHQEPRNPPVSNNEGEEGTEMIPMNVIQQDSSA
T2 sequence (looked up) 2: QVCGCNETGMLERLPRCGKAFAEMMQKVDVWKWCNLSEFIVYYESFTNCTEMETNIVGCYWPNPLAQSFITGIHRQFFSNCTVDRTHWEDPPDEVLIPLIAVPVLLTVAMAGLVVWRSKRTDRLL

T3: human calcitonin receptor (human, UniProt P30988 25-474)
T3 construct: whole, on cells; also called hCTR; hCT
T3 sequence (looked up): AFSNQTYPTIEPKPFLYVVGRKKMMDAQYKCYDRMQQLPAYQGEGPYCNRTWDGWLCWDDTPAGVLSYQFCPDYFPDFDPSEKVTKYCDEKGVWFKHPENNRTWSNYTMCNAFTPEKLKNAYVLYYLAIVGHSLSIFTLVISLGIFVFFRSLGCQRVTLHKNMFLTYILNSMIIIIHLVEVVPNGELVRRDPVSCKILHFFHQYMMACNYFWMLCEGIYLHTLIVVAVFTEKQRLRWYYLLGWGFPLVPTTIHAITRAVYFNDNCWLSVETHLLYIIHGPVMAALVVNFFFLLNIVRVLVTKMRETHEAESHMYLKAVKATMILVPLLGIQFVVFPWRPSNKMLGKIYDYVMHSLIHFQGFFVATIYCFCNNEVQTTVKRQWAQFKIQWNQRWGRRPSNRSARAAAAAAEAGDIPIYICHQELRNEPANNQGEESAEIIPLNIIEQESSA


Key:
rat calcitonin receptor [1] = target: T1, rat calcitonin receptor; experiment: SPA competition with 125I-calcitonin, membranes of BHK cells with rat calcitonin receptor (Assay VIII)
rat calcitonin receptor [2] = target: T1, rat calcitonin receptor; experiment: ratio of binding IC50s: rat calcitonin receptor over rat amylin receptor (reference)
[3] = target: T2, rat amylin receptor (rat calcitonin …); experiment: SPA competition with 125I-rat amylin, membranes of BHK cells with rat calcitonin receptor + rat RAMP3 (Assay VI)
[4] = target: T3, human calcitonin receptor; experiment: ratio of binding IC50s: human calcitonin receptor over human amylin receptor (reference)
Summary of the method: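 Scintillation proximity competition binding on cell membranes at 35 ng/μL with SPA beads, in 50 mM Hepes pH 7.4, 1 mM CaCl2, 5 mM MgCl₂, 0.1% OA, 0.02% Tween20. Incubated 120 min at 25° C with shaking. IC₅₀ from one-site competition fit.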

Binder | IC50 (rat calcitonin receptor [1]) [nM] | Ratio rCT/rAmylin binding (rat calcitonin receptor [2]) | IC50 [3] [nM] | Ratio hCT/hAmylin binding [4]
K([AEEA-γGlu-C20 diacid])CNTATCATQRLAKFLRHSSPNFGAIPSSTPVGSNTY-NH2 (disulfide 2-7; N-terminus assumed; SMILES CC[C@H](C)[C@H](NC(=O)[C@H](C)NC(=O)CNC(=O)[C@H](Cc1ccccc1)NC(=O)[C@H](CC(N)=O)NC(=O)[C@@H]1CCCN1C(=O)[C@H](CO)NC(=O)[C@H](CO)NC(=O)[C@H](Cc1c[nH]cn1)NC(=O)[C@H](CCCNC(=N)N)NC(=O)[C@H](CC(C)C)NC(=O)[C@H](Cc1ccccc1)NC(=O)[C@H](CCCCN)NC(=O)[C@H](C)NC(=O)[C@H](CC(C)C)NC(=O)[C@H](CCCNC(=N)N)NC(=O)[C@H](CCC(N)=O)NC(=O)[C@@H](NC(=O)[C@H](C)NC(=O)[C@@H]1CSSC[C@H](NC(=O)[C@@H](N)CCCCNC(=O)COCCOCCNC(=O)CC[C@H](NC(=O)CCCCCCCCCCCCCCCCCCC(=O)O)C(=O)O)C(=O)N[C@@H](CC(N)=O)C(=O)N[C@@H]([C@@H](C)O)C(=O)N[C@@H](C)C(=O)N[C@@H]([C@@H](C)O)C(=O)N1)[C@@H](C)O)C(=O)N1CCC[C@H]1C(=O)N[C@@H](CO)C(=O)N[C@@H](CO)C(=O)N[C@H](C(=O)N1CCC[C@H]1C(=O)N[C@H](C(=O)NCC(=O)N[C@@H](CO)C(=O)N[C@@H](CC(N)=O)C(=O)N[C@H](C(=O)N[C@@H](Cc1ccc(O)cc1)C(N)=O)[C@@H](C)O)C(C)C)[C@@H](C)O, synthetic analogue of human amylin; also called compound 74) | 109 | 22.3 | 4.89 | 101
K([AEEA-γGlu-C20 diacid])CNTATCATQRLATFLRHSSPNFGAIPSSTPVGSNTY-NH2 (disulfide 2-7; N-terminus assumed; SMILES CC[C@H](C)[C@H](NC(=O)[C@H](C)NC(=O)CNC(=O)[C@H](Cc1ccccc1)NC(=O)[C@H](CC(N)=O)NC(=O)[C@@H]1CCCN1C(=O)[C@H](CO)NC(=O)[C@H](CO)NC(=O)[C@H](Cc1c[nH]cn1)NC(=O)[C@H](CCCNC(=N)N)NC(=O)[C@H](CC(C)C)NC(=O)[C@H](Cc1ccccc1)NC(=O)[C@@H](NC(=O)[C@H](C)NC(=O)[C@H](CC(C)C)NC(=O)[C@H](CCCNC(=N)N)NC(=O)[C@H](CCC(N)=O)NC(=O)[C@@H](NC(=O)[C@H](C)NC(=O)[C@@H]1CSSC[C@H](NC(=O)[C@@H](N)CCCCNC(=O)COCCOCCNC(=O)CC[C@H](NC(=O)CCCCCCCCCCCCCCCCCCC(=O)O)C(=O)O)C(=O)N[C@@H](CC(N)=O)C(=O)N[C@@H]([C@@H](C)O)C(=O)N[C@@H](C)C(=O)N[C@@H]([C@@H](C)O)C(=O)N1)[C@@H](C)O)[C@@H](C)O)C(=O)N1CCC[C@H]1C(=O)N[C@@H](CO)C(=O)N[C@@H](CO)C(=O)N[C@H](C(=O)N1CCC[C@H]1C(=O)N[C@H](C(=O)NCC(=O)N[C@@H](CO)C(=O)N[C@@H](CC(N)=O)C(=O)N[C@H](C(=O)N[C@@H](Cc1ccc(O)cc1)C(N)=O)[C@@H](C)O)C(C)C)[C@@H](C)O, synthetic analogue of human amylin; also called compound 75) | 442 | 110 | 4.03 | 91.4
K([AEEA-γGlu-C20 diacid])CNTATCATQRLASFLRHSSPNFGAIPSSTPVGSNTY-NH2 (disulfide 2-7; N-terminus assumed; SMILES CC[C@H](C)[C@H](NC(=O)[C@H](C)NC(=O)CNC(=O)[C@H](Cc1ccccc1)NC(=O)[C@H](CC(N)=O)NC(=O)[C@@H]1CCCN1C(=O)[C@H](CO)NC(=O)[C@H](CO)NC(=O)[C@H](Cc1c[nH]cn1)NC(=O)[C@H](CCCNC(=N)N)NC(=O)[C@H](CC(C)C)NC(=O)[C@H](Cc1ccccc1)NC(=O)[C@H](CO)NC(=O)[C@H](C)NC(=O)[C@H](CC(C)C)NC(=O)[C@H](CCCNC(=N)N)NC(=O)[C@H](CCC(N)=O)NC(=O)[C@@H](NC(=O)[C@H](C)NC(=O)[C@@H]1CSSC[C@H](NC(=O)[C@@H](N)CCCCNC(=O)COCCOCCNC(=O)CC[C@H](NC(=O)CCCCCCCCCCCCCCCCCCC(=O)O)C(=O)O)C(=O)N[C@@H](CC(N)=O)C(=O)N[C@@H]([C@@H](C)O)C(=O)N[C@@H](C)C(=O)N[C@@H]([C@@H](C)O)C(=O)N1)[C@@H](C)O)C(=O)N1CCC[C@H]1C(=O)N[C@@H](CO)C(=O)N[C@@H](CO)C(=O)N[C@H](C(=O)N1CCC[C@H]1C(=O)N[C@H](C(=O)NCC(=O)N[C@@H](CO)C(=O)N[C@@H](CC(N)=O)C(=O)N[C@H](C(=O)N[C@@H](Cc1ccc(O)cc1)C(N)=O)[C@@H](C)O)C(C)C)[C@@H](C)O, synthetic analogue of human amylin; also called compound 73) | 50.3 | 178 | 0.283 | 51.7
K([γGlu-C20 diacid])CNTATCATQRLARFLRHSSPNFGAIPSSTNVGPNTY-NH2 (disulfide 2-7; N-terminus assumed; SMILES CC[C@H](C)[C@H](NC(=O)[C@H](C)NC(=O)CNC(=O)[C@H](Cc1ccccc1)NC(=O)[C@H](CC(N)=O)NC(=O)[C@@H]1CCCN1C(=O)[C@H](CO)NC(=O)[C@H](CO)NC(=O)[C@H](Cc1c[nH]cn1)NC(=O)[C@H](CCCNC(=N)N)NC(=O)[C@H](CC(C)C)NC(=O)[C@H](Cc1ccccc1)NC(=O)[C@H](CCCNC(=N)N)NC(=O)[C@H](C)NC(=O)[C@H](CC(C)C)NC(=O)[C@H](CCCNC(=N)N)NC(=O)[C@H](CCC(N)=O)NC(=O)[C@@H](NC(=O)[C@H](C)NC(=O)[C@@H]1CSSC[C@H](NC(=O)[C@@H](N)CCCCNC(=O)CC[C@H](NC(=O)CCCCCCCCCCCCCCCCCCC(=O)O)C(=O)O)C(=O)N[C@@H](CC(N)=O)C(=O)N[C@@H]([C@@H](C)O)C(=O)N[C@@H](C)C(=O)N[C@@H]([C@@H](C)O)C(=O)N1)[C@@H](C)O)C(=O)N1CCC[C@H]1C(=O)N[C@@H](CO)C(=O)N[C@@H](CO)C(=O)N[C@H](C(=O)N[C@@H](CC(N)=O)C(=O)N[C@H](C(=O)NCC(=O)N1CCC[C@H]1C(=O)N[C@@H](CC(N)=O)C(=O)N[C@H](C(=O)N[C@@H](Cc1ccc(O)cc1)C(N)=O)[C@@H](C)O)C(C)C)[C@@H](C)O, synthetic analogue of human amylin; also called compound 65) | 108 | 93.2 | 1.16 | 82.4
K([γGlu-C20 diacid])CNTATCATQRLARFLRHSSPNFGAIPSSTPVGSNTY-NH2 (disulfide 2-7; N-terminus assumed; SMILES CC[C@H](C)[C@H](NC(=O)[C@H](C)NC(=O)CNC(=O)[C@H](Cc1ccccc1)NC(=O)[C@H](CC(N)=O)NC(=O)[C@@H]1CCCN1C(=O)[C@H](CO)NC(=O)[C@H](CO)NC(=O)[C@H](Cc1c[nH]cn1)NC(=O)[C@H](CCCNC(=N)N)NC(=O)[C@H](CC(C)C)NC(=O)[C@H](Cc1ccccc1)NC(=O)[C@H](CCCNC(=N)N)NC(=O)[C@H](C)NC(=O)[C@H](CC(C)C)NC(=O)[C@H](CCCNC(=N)N)NC(=O)[C@H](CCC(N)=O)NC(=O)[C@@H](NC(=O)[C@H](C)NC(=O)[C@@H]1CSSC[C@H](NC(=O)[C@@H](N)CCCCNC(=O)CC[C@H](NC(=O)CCCCCCCCCCCCCCCCCCC(=O)O)C(=O)O)C(=O)N[C@@H](CC(N)=O)C(=O)N[C@@H]([C@@H](C)O)C(=O)N[C@@H](C)C(=O)N[C@@H]([C@@H](C)O)C(=O)N1)[C@@H](C)O)C(=O)N1CCC[C@H]1C(=O)N[C@@H](CO)C(=O)N[C@@H](CO)C(=O)N[C@H](C(=O)N1CCC[C@H]1C(=O)N[C@H](C(=O)NCC(=O)N[C@@H](CO)C(=O)N[C@@H](CC(N)=O)C(=O)N[C@H](C(=O)N[C@@H](Cc1ccc(O)cc1)C(N)=O)[C@@H](C)O)C(C)C)[C@@H](C)O, synthetic analogue of human amylin; also called compound 63) | 124 | 35.6 | 3.48 | 157
